4 substances from patent publication US10040826 can be followed below.

In assay [1] the target is A244 gDΔ11 gp120 (Herpes simplex virus; HIV-1). Description: Kd table; row AE.A244 gp120, column 697D gD+; method not given.
Assay [2] concerns the target A244 Δ11 gp120 (HIV-1). Description: SPR titration, binding to 697D mAb; A244 gDneg D11 at [2] to [50], unit inferred.
The target in assay [3] is A244 gDΔ11 gp120 (Herpes simplex virus; HIV-1). Description: SPR titration, binding to 697D mAb (697-30D); A244 gD+ monomer at [10] to [40], unit inferred.
Assay [4] has as its target A244-rgp120 (RV144 vaccine immunogen) (Herpes simplex virus; HIV-1). Description: SPR; 697D captured on anti-Fc surface, RV144 A244-rgp120 injected at 5.0-100 µg/mL; fitted curves [lower row]. Background: Surface plasmon resonance follows binding to a sensor surface in real time, without labels.
The target in assay [5] is MN-rgp120 (RV144 vaccine immunogen) (Herpes simplex virus; HIV-1). Description: SPR; 697D captured on anti-Fc surface, RV144 MN-rgp120 injected at 5.0-100 µg/mL; fitted curves.
Assay [6] addresses A244 gp120 (no modifications) (HIV-1). Description: SPR titration, binding to 697D mAb (697-30D); A244gDneg293Tmon at [5] to [40], unit inferred; constant labelled kd1.
For assay [7], the target named is MN gp120 (no modifications) (HIV-1). Description: Kd table; row B.MN gp120, column 697D gD-; method not given.
Assay [8] deals with A244 gp120 (no modifications) (HIV-1). Description: SPR, mAb captured on anti-Fc surface, monomeric gp120 as analyte.
Assay [9] addresses A244 gDΔ11 gp120 (Herpes simplex virus; HIV-1). Described as above.
The target of assay [10] is A244 Δ11 gp120 (HIV-1). Described as above.
Assay [11] addresses 92TH023 gDΔ11 gp120 (Herpes simplex virus; HIV-1). Description: SPR, not detailed.
Assay [12] has as its target MN gDΔ11 gp120 (Herpes simplex virus; HIV-1). Description: SPR, not detailed.
For assay [13], the target named is A244-rgp120 (RV144 vaccine immunogen) (Herpes simplex virus; HIV-1). Description: SPR, mAb captured on anti-Fc surface, gp120 as analyte (FIG. 28).
Assay [14] deals with MN-rgp120 (RV144 vaccine immunogen) (Herpes simplex virus; HIV-1). The assay is described as above.
Assay [15] addresses A244 gp120 (no modifications) (HIV-1). Description: SPR titration, binding to 697D mAb (697-30D); A244gDneg293Tmon at [5] to [40], unit inferred.
Assay [16] concerns the target 92TH023 gp120 (no modifications) (HIV-1). Description: Kd table; row AE.92TH023 gp120, column 697D gD-; method not given.
For assay [17], the target named is A244 gp120 (no modifications) (HIV-1). Description: Kd table; row AE.A244 gp120, column 697D gD-; method not given.
Assay [18] deals with A244 gDΔ11 gp120 (Herpes simplex virus; HIV-1). Description: SPR.
Assay [19] addresses A244 Δ11 gp120 (HIV-1). Description: SPR.
Assay [20] has as its target MN gDΔ11 gp120 (Herpes simplex virus; HIV-1). Description: Kd table; row B.MN gp120, column 697D gD+; method not given.
In assay [21] the target is A244 gp120 (no modifications) (HIV-1). Description: SPR titration, binding to 697D mAb (697-30D); A244gDneg293Tmon at [5], [10], [20], [40], unit inferred; constant labelled ka1.
Assay [22] deals with A244 Δ11 gp120 (HIV-1). Description: SPR titration, binding to 697D mAb; A244 gDneg D11 at [2], [4], [6], [10], [25], [50], unit inferred.
Assay [23] deals with 92TH023 gDΔ11 gp120 (Herpes simplex virus; HIV-1). Description: Kd table; row AE.92TH023 gp120, column 697D gD+; method not given.
Assay [24] has as its target A244 gDΔ11 gp120 (Herpes simplex virus; HIV-1). Description: SPR titration, binding to 697D mAb (697-30D); A244 gD+ monomer at [10], [20], [30], [40], unit inferred.
Assay [25] deals with A244-rgp120 (RV144 vaccine immunogen) (Herpes simplex virus; HIV-1). Description: SPR; A32 captured on anti-Fc surface, RV144 A244-rgp120 injected at 0.5-5 µg/mL; fitted curves [lower row].
In assay [26] the target is A244 Δ11 gp120 (HIV-1). Description: SPR; A244 gp120 gD- Δ11 293T monomer batch 110608 flowed over immobilised A32; response axis in RU.
Assay [27] concerns the target A244 Δ11 gp120 (HIV-1). Description: SPR; A244 gp120 gD- Δ11 293T monomer batch 110608 flowed over immobilised A32; ratio to ConS gp140.
The target of assay [28] is 92TH023 gp120 (no modifications) (HIV-1). Description: Kd table; row AE.92TH023 gp120, column A32 gD-; method not given.
Assay [29] concerns the target 92TH023 gDΔ11 gp120 (Herpes simplex virus; HIV-1). Description: Kd table; row AE.92TH023 gp120, column A32 gD+; method not given.
For assay [30], the target named is A244 gp120 (no modifications) (HIV-1). Description: Kd table; row AE.A244 gp120, column A32 gD-; method not given.
Assay [31] deals with MN gDΔ11 gp120 (Herpes simplex virus; HIV-1). Description: Kd table; row B.MN gp120, column A32 gD+; method not given.
The target of assay [32] is A244 Δ11 gp120 (HIV-1). Description: SPR blocking on immobilized A244 Δ11 gp120, mAb injected to near saturation, then RV144 vaccinee IgG; against 7B2 control.
Assay [33] has as its target A244 gDΔ11 gp120 (Herpes simplex virus; HIV-1). Description: Kd table; row AE.A244 gp120, column A32 gD+; method not given.
The target in assay [34] is MN gp120 (no modifications) (HIV-1). Description: Kd table; row B.MN gp120, column A32 gD-; method not given.
Assay [35] addresses MN-rgp120 (RV144 vaccine immunogen) (Herpes simplex virus; HIV-1). Description: SPR; A32 captured on anti-Fc surface, RV144 MN-rgp120 injected at 0.5-5 µg/mL; fitted curves.
The target of assay [36] is A244 gp120 (no modifications) (HIV-1). Description: SPR.
The target is the same in assay [37]. Description: SPR, Fab amine-coupled to the sensor surface, gp120 flowed.
Assay [38] has as its target A244 gDΔ11 gp120 (Herpes simplex virus; HIV-1). The description is as above.

Usually Kd stands for the concentration at which binding is half-saturated. Low values mean a tighter complex, high ones a looser complex. A word on the koff: it is a measure of how fast the partners let go of each other. In general, kon refers to the second-order rate constant of association. Read a low kon as slow association. As for V2 mAb 697D (antibody), the Kd in assay [1] came to 180 nM; with A244 Δ11 gp120 (HIV-1) [2] it was 98.7 nM; in assay [3] it was 162 nM; in assay [4] it was 477 nM; in assay [5], 318 nM; in assay [7], 1070 nM. Moreover, the Kd in assay [8] is 1470 nM; in assay [9] it was 218 nM; with A244 Δ11 gp120 (HIV-1) [10] it was 157 nM; in assay [13], 318 nM; in assay [14] it was 477 nM; in [15], 1900 nM. Besides, the Kd was determined as 1310 nM in assay [16], 1000 nM in assay [17], 488 nM in [20] and 734 nM in [23]. For the same substance, the off-rate constant (koff) with A244 Δ11 gp120 (HIV-1) [2] was determined as 0.0033 s⁻¹; in assay [3], 0.0066 s⁻¹; in assay [6], 0.0063 s⁻¹; in assay [8] it was 0.007 s⁻¹; in [9] it was 0.00524 s⁻¹; with A244 Δ11 gp120 (HIV-1) [10], 0.00518 s⁻¹. Besides, the on-rate constant (kon) in assay [8] stood at 4900 M⁻¹ s⁻¹; in [9], 24900 M⁻¹ s⁻¹; with A244 Δ11 gp120 (HIV-1) [10], 26800 M⁻¹ s⁻¹; in assay [21] it was 3400 M⁻¹ s⁻¹; with A244 Δ11 gp120 (HIV-1) [22], 24700 M⁻¹ s⁻¹; in assay [24], 40000 M⁻¹ s⁻¹. The fold enhancement of binding against the unmodified protein in assay [11] and in assay [12] was 2 to 3 fold each time. Also, the fold higher affinity than to A244 gp120 (in [18]; with A244 Δ11 gp120 (HIV-1) [19]) was 10 fold each time. The same substance gave a fold tighter binding than to A244 gp120 with no modifications with A244 Δ11 gp120 (HIV-1) [19] of 10 fold.
Consider C1 mAb A32 (antibody), for which the Kd in assay [25] was 1.13 nM; in assay [28], 4.6 nM; in assay [29], 1.35 nM; in assay [30] it was 2.6 nM; in assay [31], 4.15 nM; in assay [8], 6.25 nM. The Kd in assay [9] was 1 nM; with A244 Δ11 gp120 (HIV-1) [10] it was 0.67 nM; in assay [33], 0.13 nM; in assay [34] it was 0.8 nM; in assay [35], 0.21 nM. Moreover, in the assay with A244 Δ11 gp120 (HIV-1) [26], the Req was determined as 2290. The Relative Binding Env/ConS gp140 in the assay with A244 Δ11 gp120 (HIV-1) [27] turned out to be 5.16. For the same substance, the values for the koff (in assay [8]; in assay [9]; with A244 Δ11 gp120 (HIV-1) [10]) were 0.00047 s⁻¹, 0.000133 s⁻¹ and 0.00015 s⁻¹, respectively. Also, the kon is 76800 M⁻¹ s⁻¹ in assay [8], 134000 M⁻¹ s⁻¹ in [9] and 223000 M⁻¹ s⁻¹ with A244 Δ11 gp120 (HIV-1) [10]. Besides, the fold enhancement of binding against the unmodified protein in assay [11] and in assay [12] was 2 to 3 fold each time. The substance further displayed a percent blocking of RV144 vaccinee IgG binding with A244 Δ11 gp120 (HIV-1) [32] of 66%. Moreover, the figures for the fold higher affinity than to A244 gp120 (in assay [18]; in the assay with A244 Δ11 gp120 (HIV-1) [19]) were 6 fold and 9 fold, respectively.
As to V2 mAb 2158 (antibody), in [8], the Kd was 11.2 nM, the koff was 0.00019 s⁻¹ and the kon worked out at 16400 M⁻¹ s⁻¹. In [9], this substance came in with a Kd of 3.7 nM, a koff of 0.0001 s⁻¹ and a kon of 28700 M⁻¹ s⁻¹. In the assay with A244 Δ11 gp120 (HIV-1) [10], the Kd amounted to 3.68 nM, the koff turned out to be 0.00013 s⁻¹ and the kon was 36500 M⁻¹ s⁻¹. In [36], this substance displayed a fold lower affinity than for A244gDΔ11 and A244Δ11 gp120 of 3 fold.
As to 697D Fab, in assay [37], the Kd was found to be 5700 nM. Moreover, in [38], the Kd is 690 nM, the fold higher affinity than to unmodified A244 gp120 turned out to be 8 fold and the fold higher ka than to A244 gp120 was 10 fold.
